Test results as given in article PMC10078426 (2022).

Target: human IgG from serum (human, UniProt P01857 = IgG part)
Assay: SPR

B1: protein G only (natural protein)
chain: VDSPIEDTPIIRNGGELTNLLGNSETTLALRNEESATADLTAAAVADTVAAAAAENAGAAAWEAAAAADALAKAKADALKEFNKYGVSDYYKNLINNAKTVEGVKDLQAQVVESAKKARISEATDGLSDFLKSQTPAEDTVKSIELAEAKVLANRELDKYGVSDYHKNLINNAKTVEGVKDLQAQVVESAKKARISEATDGLSDFLKSQTPAEDTVKSIELAEAKVLANRELDKYGVSDYYKNLINNAKTVEGVKALIDEILAALPKTDTYKLILNGKTLKGETTTEAVDAATAEKVFKQYANDNGVDGEWTYDDATKTFTVTEKPEVIDASELTPAVTTYKLVINGKTLKGETTTEAVDAATAEKVFKQYANDNGVDGEWTYDDATKTFTVTEKPEVIDASELTPAVTTYKLVINGKTLKGETTTKAVDAETAEKAFKQYANDNGVDGVWTYDDATKTFTVTEMVTEVPGDAPTEPEKPEASIPLVPLTPATPIAKDDAKKDDTKKEDAKKPEAKKEDAKKAETLPTT
- Kd: 35.6 nM
